Test results taken from patent US20240174992A1, “SPLIT MODIFIED DEHALOGENASE VARIANTS” (Promega Corporation, priority 2022, published 2024).
Changes are numbered by the printed parent chain. Names may count otherwise.

B1: HaloTag[22-297](M2F): large HaloTag fragment, positions 22-297 with M to F substitution at second position (protein)
chain: MFHYVDVGPRDGTPVLFLHGNPTSSYVWRNIIPHVAPTHRCIAPDLIGMGKSDKPDLGYFFDDHVRFMDAFIEALGLEEVVLVIHDWGSALGFHWAKRNPERVKGIAFMEFIRPIPTWDEWPEFARETFQAFRTTDVGRKLIIDQNVFIEGTLPMGVVRPLTEVEMDHYREPFLNPVDREPLWRFPNELPIAGEPANIVALVEEYMDWLHQSPVPKLLFWGTPGVLIPPAEAARLAKSLPNCKAVDIGPGLNLLQEDNPDLIGSEIARWLSTLEISG
B2: HaloTag[22-297](Q145H+P154R): variant of the LgHT, positions 22-297 with HaloTag9 mutations (protein)
chain: B1 chain with F2M, Q145H, P154R

Experiments:
[1] = molecular target: T1, BRD4:Histone H3.3 interaction (Homo sapiens, UniProt O60885); assay: Live cell imaging of the BRD4:Histone H3 interaction with split HaloTag in HeLa cells; type: cell-based; conditions: second experiment, lower laser intensity
T1 construct: HaloTag[3-19]; expressed in transfected cells; host or cells: HeLa cells
Text: The Imaging data were collected in the far-red channel (Ex. 637 nm) and the green channel (Ex. 488 nm).
The imaging data were collected in the far-red channel (Ex. 637 nm) and the green channel (Ex. 488 nm). * DIC: Differential Interference Contrast.
The imaging data were collected in the far-red channel (Ex. 637 nm) and the green channel (Ex. 488 nm).
Each dot represents the intensity of an imaged cell. CellProfiler software is used for analysis. The horizontal line in each set indicates the median of the data.
Each dot represents the intensity of an imaged cell. CellProfiler software is used for this analysis. The horizontal line is indicative of the median of the data.
A second set of imaging experiments was performed to confirm reproducibility and show improvement of the system's signal-to-background ratio by changing a few confocal microscope settings, such as lower gain and laser intensity (FIG. 132).
The purpose of the second experiment (FIG. 131-134) with lower signal intensity was to see if most of the background signal could be eliminated with the cost of the overall reduction in the specific signal in the far-red channel.

[2] = Kinetic labeling assay with TMR ligand, fluorescence polarization, synthetic peptide complementation; type: biochemical, E. coli; conditions: 10 nM TMR ligand
Procedure: FIG. 32. Complementation of HaloTag[22-297](M2F) fragments using a synthetic HaloTag[3-19] peptide in a kinetic labeling assay.
A different HaloTag ligand (TMR) and fluorescence polarization assay format can be used to measure complementation with synthetic peptides (FIG. 32). […] At high peptide concentrations, the complementation with the peptide results in greater labeling rates.
The LgHT variant, HaloTag[22-297](Q145H+P154R), was also tested with the HaloTag ligand (TMR) in the fluorescence polarization assay format to measure complementation with synthetic peptides (FIG. 33). The relative kinetic rate of labeling is higher for this mutant without peptide due to its greater intrinsic stability and expression in E. coli lysates.

| Molecule | S:B ratio, background from labeling the large HaloTag [1] | labeling rate in the presence of peptide [2] |
| --- | --- | --- |
| B1 | 12 | – |
| B2 | – | faster labeling rates relative to the HaloTag[22-297](M2F) mutant |
